Positions of bridges follow the written chain, without caps; N, C: chain ends. Groups on a side chain read outwards from the residue. Chains are numbered I, II in the order given. *: point of attachment. Biotin = O=C1N[C@H]2[C@H](CS[C@H]2CCCCC(=O)*)N1; AEEA = NCCOCCOCC(=O)O
What was measured:
[1] = biological target: KDR (VEGFR-2), full-length receptor on cells (human), P35968; assay: specific binding of neutravidin-HRP complex at 2.78 nM to KDR-transfected cells; reference P1-XB (3X) + P6-XB (1X) at 5.55 nM
Chain of KDR (VEGFR-2), full-length receptor on cells (human), P35968 (P35968 20-1356): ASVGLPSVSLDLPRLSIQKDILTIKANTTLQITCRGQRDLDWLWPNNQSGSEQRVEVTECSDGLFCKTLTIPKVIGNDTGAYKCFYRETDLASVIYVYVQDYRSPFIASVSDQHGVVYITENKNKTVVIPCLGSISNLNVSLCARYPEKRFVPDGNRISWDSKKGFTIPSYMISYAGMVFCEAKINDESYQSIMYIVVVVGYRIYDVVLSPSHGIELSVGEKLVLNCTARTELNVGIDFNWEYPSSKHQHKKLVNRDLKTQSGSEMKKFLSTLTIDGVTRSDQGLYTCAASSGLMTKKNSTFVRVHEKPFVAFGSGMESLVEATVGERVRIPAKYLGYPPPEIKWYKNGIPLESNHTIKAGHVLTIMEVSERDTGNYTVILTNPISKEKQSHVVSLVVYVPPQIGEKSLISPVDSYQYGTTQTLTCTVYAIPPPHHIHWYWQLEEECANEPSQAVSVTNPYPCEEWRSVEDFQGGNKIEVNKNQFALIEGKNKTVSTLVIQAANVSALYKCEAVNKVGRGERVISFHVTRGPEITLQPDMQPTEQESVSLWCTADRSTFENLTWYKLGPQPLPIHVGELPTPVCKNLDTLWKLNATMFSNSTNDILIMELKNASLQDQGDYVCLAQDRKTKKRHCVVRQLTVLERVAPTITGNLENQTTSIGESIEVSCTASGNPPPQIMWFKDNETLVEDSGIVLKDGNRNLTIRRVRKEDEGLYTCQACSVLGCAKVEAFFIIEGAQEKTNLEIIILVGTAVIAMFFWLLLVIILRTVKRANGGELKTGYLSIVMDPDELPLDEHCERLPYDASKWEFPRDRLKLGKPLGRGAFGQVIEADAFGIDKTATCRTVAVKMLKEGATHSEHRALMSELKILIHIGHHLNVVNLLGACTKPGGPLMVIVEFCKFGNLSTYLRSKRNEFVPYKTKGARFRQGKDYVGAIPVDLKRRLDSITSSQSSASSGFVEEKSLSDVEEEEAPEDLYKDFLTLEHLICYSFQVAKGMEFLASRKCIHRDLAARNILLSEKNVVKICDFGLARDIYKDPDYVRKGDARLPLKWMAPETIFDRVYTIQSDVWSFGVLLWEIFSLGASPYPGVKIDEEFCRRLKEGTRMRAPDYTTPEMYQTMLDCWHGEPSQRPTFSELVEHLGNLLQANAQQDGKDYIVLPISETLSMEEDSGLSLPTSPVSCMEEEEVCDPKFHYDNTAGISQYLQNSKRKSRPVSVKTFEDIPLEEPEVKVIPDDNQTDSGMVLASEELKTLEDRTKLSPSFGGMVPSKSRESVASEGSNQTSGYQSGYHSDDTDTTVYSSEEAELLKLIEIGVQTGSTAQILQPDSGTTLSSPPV

[2] = biological target: KDR (VEGFR-2), full-length receptor on cells (human), P35968; assay: specific binding of neutravidin-HRP complex at 3.33 nM to KDR-transfected cells; reference P5-XB (1X) + P1-XB (3X)
[3] = biological target: KDR (VEGFR-2), full-length receptor on cells (human), P35968; assay: competition with 300 pM 125I-VEGF on KDR-transfected 293H cells; peptide 0.3 µM; conditions: remark: other sources report otherwise
[4] = biological target: KDR (VEGFR-2), full-length receptor on cells (human), P35968; assay: competition with 300 pM 125I-VEGF on KDR-transfected 293H cells; peptide 30 µM; conditions: remark: other sources report otherwise

B1: P1-XB (1X) + P6-XB (1X) + P12-XB (2X) / neutravidin-HRP (peptide, not shown: large carriers; small tags and cut ends)
peptide 1: Ac-GDSRVCWEDSWGGEVCFRYDPGGGK([AEEA-AEEA-Biotin])-NH2
peptide 2: Ac-AGPTWCEDDWYYCWLFGTGGGK([AEEA-AEEA-Biotin])-NH2
modifications: disulfide I:6-I:16, II:6-II:13 (inferred); not fully specified; also: bound via biotin to neutravidin-HRP
- Heteromer/Monomer Ratio [1]: 47 fold

B2: P1-XB (1X) + P6-XB (1X) + P5-XB (2X) / neutravidin-HRP (peptide, not shown: large carriers; small tags and cut ends)
peptide 1: Ac-GDSRVCWEDSWGGEVCFRYDPGGGK([AEEA-AEEA-Biotin])-NH2
peptide 2: Ac-AGPKWCEEDWYYCMITGTGGGK([AEEA-AEEA-Biotin])-NH2
modifications: disulfide I:6-I:16, II:6-II:13 (inferred); not fully specified; also: bound via biotin to neutravidin-HRP
- Heteromer/Monomer Ratio [2]: 213 fold

B3: P1-XB (2X) + P6-XB (1X) + P5-XB (1X) / neutravidin-HRP (peptide, not shown: large carriers; small tags and cut ends)
peptide 1: Ac-GDSRVCWEDSWGGEVCFRYDPGGGK([AEEA-AEEA-Biotin])-NH2
peptide 2: Ac-AGPKWCEEDWYYCMITGTGGGK([AEEA-AEEA-Biotin])-NH2
modifications: disulfide I:6-I:16, II:6-II:13 (inferred); not fully specified; also: bound via biotin to neutravidin-HRP
- Heteromer/Monomer Ratio [2]: 109 fold

B4: P5-XB (peptide)
peptide: Ac-AGPKWCEEDWYYCMITGTGGGK([AEEA-AEEA-Biotin])-NH2
modifications: disulfide 6-13 (inferred)
- % inhibition of 125I-labeled VEGF binding [3]: 24.4%
- % inhibition of 125I-labeled VEGF binding [4]: 48%

B5: P1-XB (1X) + P6-XB (2X) + P5-XB (1X) / neutravidin-HRP (peptide, not shown: large carriers; small tags and cut ends)
peptide 1: Ac-GDSRVCWEDSWGGEVCFRYDPGGGK([AEEA-AEEA-Biotin])-NH2
peptide 2: Ac-AGPKWCEEDWYYCMITGTGGGK([AEEA-AEEA-Biotin])-NH2
modifications: disulfide I:6-I:16, II:6-II:13 (inferred); not fully specified; also: bound via biotin to neutravidin-HRP
- Heteromer/Monomer Ratio [2]: 242 fold
